Measured values as given in publication doi:10.1101/2024.02.03.578754 (bioRxiv, 2024).
Where no end group is shown, it is not given here.

Molecular target: Arabidopsis thaliana O-acetylserine sulfhydrylase (OASS) (Arabidopsis thaliana, UniProt P47998 3-322)
Test: fluorescence polarisation

Chain of Arabidopsis thaliana O-acetylserine sulfhydrylase (OASS) (P47998 3-322): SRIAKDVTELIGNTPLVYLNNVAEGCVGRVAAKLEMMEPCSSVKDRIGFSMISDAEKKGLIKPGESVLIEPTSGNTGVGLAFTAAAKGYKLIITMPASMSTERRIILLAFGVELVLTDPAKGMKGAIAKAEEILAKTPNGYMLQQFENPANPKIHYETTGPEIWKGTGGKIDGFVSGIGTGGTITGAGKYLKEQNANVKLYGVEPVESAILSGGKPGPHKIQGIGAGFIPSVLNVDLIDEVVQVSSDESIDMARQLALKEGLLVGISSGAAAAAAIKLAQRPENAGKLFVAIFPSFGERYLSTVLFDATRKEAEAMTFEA

YLTEWSDYVI (also: FITC conjugate, position not given here) [FITC-labeled SAT-derived peptide YLTEWSDYVI (FITC-SATp)]: binds.
